Molecular target: death receptor (DR) 3 on mouse mucosal CD4+ T cells (mouse)
Assay: cell-based or functional assay

Q: How did the numbers of IFN-gamma producing CD4+ cells (intracellular staining of LPMC, without vs. with TL1A) turn out when “TL1A added to mouse MLN and LP mononuclear cell cultures (from UniProt Q5UBV8 76-252) (ligand)” was run?
A: Its numbers of IFN-gamma producing CD4+ cells (intracellular staining of LPMC, without vs. with TL1A) is 1.

Q: What about the numbers of IL-17-producing CD4+ cells (intracellular staining of LPMC, without vs. with TL1A) of the same substance?
A: Its numbers of IL-17-producing CD4+ cells (intracellular staining of LPMC, without vs. with TL1A) is 0.89.

Source: patent publication US20190211400A1
